IntAct's records for PubMed 31515488

B1: Lipopolysaccharide-induced tumor necrosis factor-alpha factor (Homo sapiens), Q99732 (parent)
chain: MSVPGPYQAATGPSSAPSAPPSYEETVAVNSYYPTPPAPMPGPTTGLVTGPDGKGMNPPSYYTQPAPIPNNNPITVQTVYVQHPITFLDRPIQMCCPSCNKMIVSQLSYNAGALTWLSCGSLCLLGCIAGCCFIPFCVDALQDVDHYCPNCRALLGTYKRL
B2: Protein DDI1 homolog 1 (Homo sapiens), Q8WTU0 (parent)
chain: MLITVYCVRRDLSEVTFSLQVSPDFELRNFKVLCEAESRVPVEEIQIIHMERLLIEDHCSLGSYGLKDGDIVVLLQKDNVGPRAPGRAPNQPRVDFSGIAVPGTSSSRPQHPGQQQQRTPAAQRSQGLASGEKVAGLQGLGSPALIRSMLLSNPHDLSLLKERNPPLAEALLSGSLETFSQVLMEQQREKALREQERLRLYTADPLDREAQAKIEEEIRQQNIEENMNIAIEEAPESFGQVTMLYINCKVNGHPLKAFVDSGAQMTIMSQACAERCNIMRLVDRRWAGVAKGVGTQRIIGRVHLAQIQIEGDFLQCSFSILEDQPMDMLLGLDMLRRHQCSIDLKKNVLVIGTTGTQTYFLPEGELPLCSRMVSGQDESSDKEITHSVMDSGRKEH
partner: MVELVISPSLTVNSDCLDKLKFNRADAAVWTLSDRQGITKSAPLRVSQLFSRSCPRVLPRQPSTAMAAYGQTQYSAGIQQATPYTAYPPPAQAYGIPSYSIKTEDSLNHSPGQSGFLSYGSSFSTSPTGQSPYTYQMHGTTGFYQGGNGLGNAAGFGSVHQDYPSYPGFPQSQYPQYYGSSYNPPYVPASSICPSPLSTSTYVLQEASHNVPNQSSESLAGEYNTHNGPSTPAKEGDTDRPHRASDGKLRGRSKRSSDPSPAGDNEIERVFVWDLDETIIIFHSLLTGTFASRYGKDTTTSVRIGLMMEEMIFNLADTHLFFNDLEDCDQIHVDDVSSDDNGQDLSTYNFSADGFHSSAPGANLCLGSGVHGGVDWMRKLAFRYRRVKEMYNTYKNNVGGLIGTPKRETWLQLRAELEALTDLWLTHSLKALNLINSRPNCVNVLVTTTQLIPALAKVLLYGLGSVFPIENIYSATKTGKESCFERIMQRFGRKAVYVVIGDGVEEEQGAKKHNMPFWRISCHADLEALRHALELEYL

Variants of: B1
Conditions: with bag3_human BAG3, O95817
Chain of bag3_human BAG3, O95817 (O95817 whole entry): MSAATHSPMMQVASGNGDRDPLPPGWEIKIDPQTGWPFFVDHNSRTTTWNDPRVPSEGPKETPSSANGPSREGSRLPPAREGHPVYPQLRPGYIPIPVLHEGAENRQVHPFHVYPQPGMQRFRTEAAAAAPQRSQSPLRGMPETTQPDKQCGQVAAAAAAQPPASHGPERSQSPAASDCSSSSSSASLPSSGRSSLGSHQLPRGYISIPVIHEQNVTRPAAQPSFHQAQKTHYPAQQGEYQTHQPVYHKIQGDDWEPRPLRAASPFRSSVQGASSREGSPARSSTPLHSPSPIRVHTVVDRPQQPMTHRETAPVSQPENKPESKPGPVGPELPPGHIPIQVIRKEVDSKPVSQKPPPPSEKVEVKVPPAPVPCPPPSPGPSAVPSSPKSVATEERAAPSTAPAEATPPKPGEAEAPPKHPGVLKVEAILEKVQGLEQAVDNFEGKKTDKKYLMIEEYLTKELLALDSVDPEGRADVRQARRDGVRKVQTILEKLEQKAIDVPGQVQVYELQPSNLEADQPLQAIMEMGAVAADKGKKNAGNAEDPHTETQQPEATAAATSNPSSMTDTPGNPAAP

effect of a mutation on the interaction	Variant
with no effect	C137Y
with no effect	I92V

Variants of: B1
Conditions: with reep6_human REEP6, Q96HR9
Chain of reep6_human REEP6, Q96HR9 (Q96HR9 whole entry): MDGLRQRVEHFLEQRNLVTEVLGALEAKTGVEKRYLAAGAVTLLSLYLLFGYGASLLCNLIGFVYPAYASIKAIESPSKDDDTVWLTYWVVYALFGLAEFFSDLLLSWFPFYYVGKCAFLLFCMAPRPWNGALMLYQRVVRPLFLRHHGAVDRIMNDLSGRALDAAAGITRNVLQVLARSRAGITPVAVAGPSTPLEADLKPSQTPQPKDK

effect of a mutation on the interaction	Variant
disrupting interaction strength	C137Y

Variants of: B1
Conditions: with stam2_human STAM2, O75886

effect of a mutation on the interaction	Variant
with no effect	C137Y

Variants of: B1
Conditions: with hgs_human HGS

effect of a mutation on the interaction	Variant
with no effect	C137Y

Variants of: B2
Conditions: with eya2_human EYA2, O00167

effect of a mutation on the interaction	Variant
with no effect	MLITVYCVRRDLSEVTFSLQVSPDFELRNFKVLCEAESRVPVEEIQIIHMERLLIEDHCSLGSYGLKDGDIVVLLQKDNVGPRAPGRAPNQPRVDFSGIAVPGTSSSRPQHPGQQQQRTPAAQRSQGLASGEKVAGLQGLGSPALIRSMLLSNPHDLSLLKERNPPLAEALLSGSLETFSQVLMEQQREKALREQERLRLYTADPLDREAQAKIEEEIRQQNIEENMTIAIEEAPESFGQVTMLYINCKVNGHPLKAFVDSGAQMTIMSQACAERCNIMRLVDRRWAGVAKGVGTQRIIGRVHLAQIQIEGDFLQCSFSILEDQPMDMLLGLDMLRRHQCSIDLKKNVLVIGTTGTQTYFLPEGELPLCSRMVSGQDESSDKEITHSVMDSGRKEH [N228T]
with no effect	MLITVYCVRRDLSEVTFSLQVSPDFELRNFKVLCEAESRVPVEEIQIIHMERLLIEDHCSLGAYGLKDGDIVVLLQKDNVGPRAPGRAPNQPRVDFSGIAVPGTSSSRPQHPGQQQQRTPAAQRSQGLASGEKVAGLQGLGSPALIRSMLLSNPHDLSLLKERNPPLAEALLSGSLETFSQVLMEQQREKALREQERLRLYTADPLDREAQAKIEEEIRQQNIEENMNIAIEEAPESFGQVTMLYINCKVNGHPLKAFVDSGAQMTIMSQACAERCNIMRLVDRRWAGVAKGVGTQRIIGRVHLAQIQIEGDFLQCSFSILEDQPMDMLLGLDMLRRHQCSIDLKKNVLVIGTTGTQTYFLPEGELPLCSRMVSGQDESSDKEITHSVMDSGRKEH [S63A]
